Measurements reported in the supplement of paper PMC7125110.
± gives the standard error. This sample holds only a part of the variants without activity.

B1: glmS ribozyme (parent)
chain: AUAAAAGCGCCAGAACUACAGAAAUGUAGUUGACGAGGAGGAGGUUUAUCGAAUUUUCGGCGGAUGCCUCCAAA

Experiments:
Conditions in all cases: with glucosamine-6-phosphate
glucosamine-6-phosphate [1] = variants of: B1; experiment: self-cleavage kobs at 40 uM GlcN6P; higher = faster cleavage; RNA array
Method in brief: (§1)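 Using a hybridised Cy3 probe at 37 °C, barcoded ribozyme variants transcribed in situ by E. coli RNA polymerase on sequenced MiSeq chips were monitored across tiles imaged over ~14 h. The flow contained glucosamine-6-phosphate from 40 μM to 10 mM in HEPES/KCl/Mg(OAc)2 buffer. Signals were normalised to baseline and to non-cleaving reference variants before per-tile medians were fit to one- or two-exponential decays to yield kobs. Weighted Michaelis–Menten fits across concentrations gave kcat and KM.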

glucosamine-6-phosphate [2] = variants of: B1; experiment: self-cleavage kobs at 2500 uM GlcN6P; higher = faster cleavage; RNA array
Method in brief: as §1

glucosamine-6-phosphate [3] = variants of: B1; experiment: self-cleavage kobs at 10000 uM GlcN6P; higher = faster cleavage; RNA array
Method in brief: as §1

glucosamine-6-phosphate [4] = variants of: B1; experiment: self-cleavage kobs at 160 uM GlcN6P; higher = faster cleavage; RNA array
Method in brief: as §1

glucosamine-6-phosphate [5] = variants of: B1; experiment: self-cleavage kobs at 640 uM GlcN6P; higher = faster cleavage; RNA array
Method in brief: as §1

AUAAAAGCGCCAUAACUACAGAAAUGUAGUUGUCGAGGAGGAGCUUUAUCGAAUUUUCGGCGGAUGCCUCCAAA [G13U A33U G44C] was tested, and the “self-cleavage kobs at 40 uM GlcN6P” value (glucosamine-6-phosphate [1]) was < 1e-05 s⁻¹.

In the case of AUAAAAGCGCCAGAAUUACAGAAAUGUAGUCGACGGGGAGCAGGUUUAUCGAAUUUUCGGCGGAUGCCUCCAAA [C16U U31C A36G G41C], the “self-cleavage kobs at 40 uM GlcN6P” value (glucosamine-6-phosphate [1]) is reported as < 1e-05 s⁻¹, the “self-cleavage kobs at 2500 uM GlcN6P” value (glucosamine-6-phosphate [2]) is reported as < 1e-05 s⁻¹ and the “self-cleavage kobs at 10000 uM GlcN6P” value (glucosamine-6-phosphate [3]) is reported as < 1e-05 s⁻¹.

For AUAAAAGCGCCAGAACUACAGAAAUGUAGUGGACGAGGAGGAGGUUUAUGGAAUUUUCGGCGGAUGCCUCCAAA [U31G C50G], the “self-cleavage kobs at 40 uM GlcN6P” value (glucosamine-6-phosphate [1]) was 6.22e-05 ± 1.5e-05 s⁻¹, the “self-cleavage kobs at 160 uM GlcN6P” value (glucosamine-6-phosphate [4]) was 0.000172 ± 3e-05 s⁻¹ and the “self-cleavage kobs at 640 uM GlcN6P” value (glucosamine-6-phosphate [5]) was 0.000175 ± 4.5e-05 s⁻¹. For the same variant, the “self-cleavage kobs at 2500 uM GlcN6P” value (glucosamine-6-phosphate [2]) was 0.00013 ± 1.9e-05 s⁻¹ and the “self-cleavage kobs at 10000 uM GlcN6P” value (glucosamine-6-phosphate [3]) was 3.31e-05 ± 1.1e-05 s⁻¹.

For AUAAAAGCGCCAGAACUACAGAAAUGUAGUUGUCGAGGUGGAGCUUUAUCGAAUUUUCGGCGCAUGGCUCCAAA [A33U A39U G44C G63C C67G], the “self-cleavage kobs at 40 uM GlcN6P” value (glucosamine-6-phosphate [1]) was < 1e-05 s⁻¹ and the “self-cleavage kobs at 10000 uM GlcN6P” value (glucosamine-6-phosphate [3]) was < 1e-05 s⁻¹.

In the case of AUAAAAGCGCCAGAACUACAGAAAUGUAGUUGACGAGCACGAGGUUUAUCGAAUUUUCGGCGGUUGCCUCCAAA [G38C G40C A64U], the “self-cleavage kobs at 40 uM GlcN6P” value (glucosamine-6-phosphate [1]) is reported as < 1e-05 s⁻¹ and the “self-cleavage kobs at 10000 uM GlcN6P” value (glucosamine-6-phosphate [3]) is reported as < 1e-05 s⁻¹.

AUAAAAGCGCCAUAACUACAGAAAUGUAGUUGACGAGGAGCAGGUGUAUGGAAUUUUCGGCGGAUGCCUCCAAA [G13U G41C U46G C50G] was tested, and the “self-cleavage kobs at 40 uM GlcN6P” value (glucosamine-6-phosphate [1]) was < 1e-05 s⁻¹.

AUAAAAGUGCUAGAACUACAGAAAUGUAGUUGACGAGGAGGAGGUUUAUCGAAUUUUAGGCGGAUGGCUCCAAA [C8U C11U C58A C67G] was tested, and the “self-cleavage kobs at 40 uM GlcN6P” value (glucosamine-6-phosphate [1]) was 0.00018 ± 3.1e-05 s⁻¹, the “self-cleavage kobs at 640 uM GlcN6P” value (glucosamine-6-phosphate [5]) was 0.00126 ± 0.00052 s⁻¹ and the “self-cleavage kobs at 2500 uM GlcN6P” value (glucosamine-6-phosphate [2]) was 0.000112 ± 4.5e-05 s⁻¹. The “self-cleavage kobs at 10000 uM GlcN6P” value (glucosamine-6-phosphate [3]) was 0.000209 ± 5.4e-05 s⁻¹.

For AUAAAAGCGCCAGAACUACAGAAAUGUAGUUGACGAGGAGGAGGUUUAUCGAAGUUUCGGCUGAUGCCUCCAAA [U54G G62U], the “self-cleavage kobs at 40 uM GlcN6P” value (glucosamine-6-phosphate [1]) was < 1e-05 s⁻¹, the “self-cleavage kobs at 160 uM GlcN6P” value (glucosamine-6-phosphate [4]) was < 1e-05 s⁻¹ and the “self-cleavage kobs at 640 uM GlcN6P” value (glucosamine-6-phosphate [5]) was < 1e-05 s⁻¹. For the same variant, the “self-cleavage kobs at 2500 uM GlcN6P” value (glucosamine-6-phosphate [2]) was < 1e-05 s⁻¹ and the “self-cleavage kobs at 10000 uM GlcN6P” value (glucosamine-6-phosphate [3]) was < 1e-05 s⁻¹.

For AUAAAAGCGCCAGAACUACAGAAAUGUAGUUGACGAGGGGGAGGUUUAUCGACUUUUCGGCGGAUGCCUCCAAA [A39G A53C], the “self-cleavage kobs at 40 uM GlcN6P” value (glucosamine-6-phosphate [1]) was 0.000254 ± 5.4e-05 s⁻¹, the “self-cleavage kobs at 160 uM GlcN6P” value (glucosamine-6-phosphate [4]) was 0.000658 ± 0.00016 s⁻¹ and the “self-cleavage kobs at 640 uM GlcN6P” value (glucosamine-6-phosphate [5]) was 0.00303 ± 0.00075 s⁻¹. For the same variant, the “self-cleavage kobs at 2500 uM GlcN6P” value (glucosamine-6-phosphate [2]) was 0.0068 ± 0.0017 s⁻¹ and the “self-cleavage kobs at 10000 uM GlcN6P” value (glucosamine-6-phosphate [3]) was 0.0216 ± 0.0083 s⁻¹.

In the case of AUAAAAGCGCCAGAACUACAGAAAUGUAGUUGACGAGGAGAAGGUUUAUCGAAUUUUCGGCGGAUGCCCCCAAA [G41A U69C], the “self-cleavage kobs at 40 uM GlcN6P” value (glucosamine-6-phosphate [1]) is reported as < 1e-05 s⁻¹ and the “self-cleavage kobs at 160 uM GlcN6P” value (glucosamine-6-phosphate [4]) is reported as < 1e-05 s⁻¹.

For AUAAAAGCGCCAGAACUACAGAAAUGUAGUUGAAGAGGAGGAGUUUUAUCCAAUUUUCGGCGGAUGCCUCCAAA [C34A G44U G51C], the “self-cleavage kobs at 40 uM GlcN6P” value (glucosamine-6-phosphate [1]) was < 1e-05 s⁻¹, the “self-cleavage kobs at 640 uM GlcN6P” value (glucosamine-6-phosphate [5]) was < 1e-05 s⁻¹ and the “self-cleavage kobs at 2500 uM GlcN6P” value (glucosamine-6-phosphate [2]) was < 1e-05 s⁻¹. The “self-cleavage kobs at 10000 uM GlcN6P” value (glucosamine-6-phosphate [3]) was < 1e-05 s⁻¹.

For AUAAAAGCGCCAGGACUACAGAAAUGUAGUUGACGAGGAGGAGGUUUAUCGACUUUUCGGCGGAUGCCUCUAAA [A14G A53C C71U], the “self-cleavage kobs at 40 uM GlcN6P” value (glucosamine-6-phosphate [1]) was 0.000387 ± 8.7e-05 s⁻¹, the “self-cleavage kobs at 640 uM GlcN6P” value (glucosamine-6-phosphate [5]) was 0.00168 ± 0.00056 s⁻¹ and the “self-cleavage kobs at 2500 uM GlcN6P” value (glucosamine-6-phosphate [2]) was 0.00736 ± 0.003 s⁻¹. For the same variant, the “self-cleavage kobs at 10000 uM GlcN6P” value (glucosamine-6-phosphate [3]) was 0.00798 ± 0.002 s⁻¹.
